Reference: IntAct's records for PubMed 17698606

B1: S phase cyclin A-associated protein in the endoplasmic reticulum (Homo sapiens), Q9BY12 (parent)
chain: MMASFQRSNSHDKVRRIVAEEGRTARNLIAWSVPLESKDDDGKPKCQTGGKSKRTIQGTHKTTKQSTAVDCKITSSTTGDKHFDKSPTKTRHPRKIDLRARYWAFLFDNLRRAVDEIYVTCESDQSVVECKEVLMMLDNYVRDFKALIDWIQLQEKLEKTDAQSRPTSLAWEVKKMSPGRHVIPSPSTDRINVTSNARRSLNFGGSTGTVPAPRLAPTGVSWADKVKAHHTGSTASSEITPAQSCPPMTVQKASRKNERKDAEGWETVQRGRPIRSRSTAVMPKVSLATEATRSKDDSDKENVCLLPDESIQKGQFVGDGTSNTIESHPKDSLHSCDHPLAEKTQFTVSTLDDVKNSGSIRDNYVRTSEISAVHIDTECVSVMLQAGTPPLQVNEEKFPAEKARIENEMDPSDISNSMAEVLAKKEELADRLEKANEEAIASAIAEEEQLTREIEAEENNDINIETDNDSDFSASMGSGSVSFCGMSMDWNDVLADYEARESWRQNTSWGDIVEEEPARPPGHGIHMHEKLSSPSRKRTIAESKKKHEEKQMKAQQLREKLREEKTLKLQKLLEREKDVRKWKEELLDQRRRMMEEKLLHAEFKREVQLQAIVKKAQEEEAKVNEIAFINTLEAQNKRHDVLSKLKEYEQRLNELQEERQRRQEEKQARDEAVQERKRALEAERQARVEELLMKRKEQEARIEQQRQEKEKAREDAARERARDREERLAALTAAQQEAMEELQKKIQLKHDESIRRHMEQIEQRKEKAAELSSGRHANTDYAPKLTPYERKKQCSLCNVLISSEVYLFSHVKGRKHQQAVRENTSIQGRELSDEEVEHLSLKKYIIDIVVESTAPAEALKDGEERQKNKKKAKKIKARMNFRAKEYESLMETKNSGSDSPYKAKLQRLAKDLLKQVQVQDSGSWANNKVSALDRTLGEITRILEKENVADQIAFQAAGGLTALEHILQAVVPATNVNTVLRIPPKSLCNAINVYNLTCNNCSENCSDVLFSNKITFLMDLLIHQLTVYVPDENNTILGRNTNKQVFEGLTTGLLKVSAVVLGCLIANRPDGNCQPATPKIPTQEMKNKPSQGDPFNNRVQDLISYVVNMGLIDKLCACFLSVQGPVDENPKMAIFLQHAAGLLHAMCTLCFAVTGRSYSIFDNNRQDPTGLTAALQATDLAGVLHMLYCVLFHGTILDPSTASPKENYTQNTIQVAIQSLRFFNSFAALHLPAFQSIVGAEGLSLAFRHMASSLLGHCSQVSCESLLHEVIVCVGYFTVNHPDNQVIVQSGRHPTVLQKLCQLPFQYFSDPRLIKVLFPSLIAACYNNHQNKIILEQEMSCVLLATFIQDLAQTPGQAENQPYQPKGKCLGSQDYLELANRFPQQAWEEARQFFLKKEKK

Variants of: B1
Conditions: with cdk2_human CDK2, P24941

Row | Variant | effect of a mutation on the interaction
1 | R26A;N27A;L28A | with no effect
2 | R199A;S200A;L201A | disrupting interaction strength
3 | R678A;L680A | with no effect
